Blank lines part the entries; values can stand above or below the binder they belong to.
B6: CHCHD4-SPS (C53S/C55S), full length (natural protein, human, UniProt Q8N4Q1 1-142, looked up)
chain: MSYCRQEGKDRIIFVTKEDHETPSSAELVADDPNDPYEEHGLILPNGNINWNSPSLGGMASGPCGEQFKSAFSCFHYSTEEIKGSDCVDQFRAMQECMQKYPDLYPQEDEDEEEEREKKPAEQAEETAPIEATATKEEEGSS
notes: source: E. coli Rosetta2Gami(DE3), purified (Ni-NTA, PreScission cleavage, subtractive Ni-NTA, Superdex 75); not shown: GB1-6X-His, N-terminal, cleaved

How the values were obtained:
AIF(104-613)-W196A = target: T1, AIF(104-613)-W196A (human, UniProt O95831 104-613, W196A); assay: crystal structure; AIF(104-613)-W196A-CHCHD4(1-45) chimera, hanging drop, 0.1 M HEPES pH 8, 0.1 M NaCl, 18% PEG3350; CHCHD4 N45 linked to the C-terminus of AIF by …; AIF dimer with N45 resolved on both monomers; settings: both partners purified
T1 construct: Apoptosis-inducing factor (AIF), human, residues 104-613; Stands only for the AIF half of the crystallised chimera, so that the AIF-CHCHD4 contact can be written as a pair; also called dimer-permissive AIF (104-613) W196A mutant; source: E. coli Rosetta2(DE3), purified, as the AIF part of the chimera m17

Atto488-AIF(78-613)/NADH [1] = target: T2, Atto488-AIF(78-613)/NADH (human, UniProt O95831 78-613, ATTO 488 (NHS ester) on the N-terminus); assay: MST; CHCHD4 constructs titrated (1.8 nM–15 or 30 µM) into 100 nM Atto488-AIF(78-613) with unlabeled AIF and NADH (pre-formed charge-transfer complex); 25 mM HEPES pH 7.5, 150 mM NaCl, 0.01% Tween-20, 5 mM TCEP; 25 °C; first block of Table 1 (Fig. 1B); settings: both partners purified
T2 construct: Apoptosis-inducing factor (AIF), human, residues 78-613; also called Atto488-AIF-NADH; Atto488-AIF/NADH

[2] = target: T3, ΔN-CHCHD4-SPS (residues 40-142, C53S/C55S) (human, UniProt Q8N4Q1 40-142, C53S | C55S, heat-unfolded and TCEP-reduced (free cysteines). The printed accession E5RGN4 is not among the candidates; the canonical human CHCHD10 entry Q8WYQ3 (used for the AlphaFold model) is taken instead. …); assay: ITC
T3 sequence: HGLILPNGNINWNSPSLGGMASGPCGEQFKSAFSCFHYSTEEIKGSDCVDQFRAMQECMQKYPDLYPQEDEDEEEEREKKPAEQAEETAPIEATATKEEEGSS

[3] = target: T4, CHCHD4-AIA-A-SPS (I12A/F14A/H20A/C53S/C55S) (human, UniProt Q8N4Q1 1-142, I12A | F14A | H20A | C53S | C55S, heat-unfolded and TCEP-reduced (free cysteines). The printed accession E5RGN4 is not among the candidates; the canonical human CHCHD10 entry Q8WYQ3 (used for the AlphaFold model) is taken instead. …); assay: ITC
T4 sequence: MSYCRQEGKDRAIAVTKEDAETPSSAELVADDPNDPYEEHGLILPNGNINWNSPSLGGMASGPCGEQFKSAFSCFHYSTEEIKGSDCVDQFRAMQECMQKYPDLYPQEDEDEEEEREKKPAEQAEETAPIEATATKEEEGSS

[4] = target: T5, CHCHD4-SPS (C53S/C55S), full length (human, UniProt Q8N4Q1 1-142, C53S | C55S, heat-unfolded and TCEP-reduced (free cysteines). The printed accession E5RGN4 is not among the candidates; the canonical human CHCHD10 entry Q8WYQ3 (used for the AlphaFold model) is taken instead. …); assay: ITC
T5 sequence: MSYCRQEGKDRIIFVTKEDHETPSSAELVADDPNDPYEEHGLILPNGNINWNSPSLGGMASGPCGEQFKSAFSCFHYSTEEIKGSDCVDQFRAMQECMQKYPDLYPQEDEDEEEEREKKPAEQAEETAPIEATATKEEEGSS

[5] = target: T6, ΔN-CHCHD4-SPS (residues 40-142, C53S/C55S) (human, UniProt Q8N4Q1 40-142, C53S | C55S); assay: ITC
T6 sequence: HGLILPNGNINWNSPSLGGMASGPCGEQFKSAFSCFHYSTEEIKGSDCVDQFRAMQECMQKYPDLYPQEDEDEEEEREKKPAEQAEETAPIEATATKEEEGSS

[6] = target: T7, CHCHD4-SPS (C53S/C55S), full length (human, UniProt Q8N4Q1 1-142, C53S | C55S); assay: ITC
T7 sequence: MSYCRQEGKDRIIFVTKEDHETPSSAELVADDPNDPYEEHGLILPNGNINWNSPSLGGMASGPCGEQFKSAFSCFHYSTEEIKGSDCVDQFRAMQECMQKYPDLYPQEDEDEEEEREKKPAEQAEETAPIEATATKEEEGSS

[7] = target: T8, CHCHD4-AIA-A-SPS (I12A/F14A/H20A/C53S/C55S) (human, UniProt Q8N4Q1 1-142, I12A | F14A | H20A | C53S | C55S); assay: ITC
T8 sequence: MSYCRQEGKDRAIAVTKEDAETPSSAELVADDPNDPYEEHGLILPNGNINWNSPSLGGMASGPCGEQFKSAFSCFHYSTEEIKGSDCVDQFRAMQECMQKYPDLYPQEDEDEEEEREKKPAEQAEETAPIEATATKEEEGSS

[8] = target: T9, CHCHD6, unfolded and reduced (human, UniProt Q9BRQ6 1-235); assay: ITC; 700-750 µM CPC-inactivated CHCHD4 constructs titrated into 50 µM unfolded substrate; 25 mM HEPES pH 7.5, 150 mM NaCl, 1 mM TCEP; 25 °C; settings: both partners purified
T9 construct: CHCHD6 (MIC25), human, CX9C import substrate; construct from the DNASU Plasmid Repository inserted into pET30a; also called unfolded CHCHD6 substrate; MIC25; source: E. coli Rosetta2Gami(DE3), purified; unfolded by heating at 70 °C for 20 min with TCEP; not shown: GB1-6X-His, N-terminal, cleaved
T9 sequence (looked up): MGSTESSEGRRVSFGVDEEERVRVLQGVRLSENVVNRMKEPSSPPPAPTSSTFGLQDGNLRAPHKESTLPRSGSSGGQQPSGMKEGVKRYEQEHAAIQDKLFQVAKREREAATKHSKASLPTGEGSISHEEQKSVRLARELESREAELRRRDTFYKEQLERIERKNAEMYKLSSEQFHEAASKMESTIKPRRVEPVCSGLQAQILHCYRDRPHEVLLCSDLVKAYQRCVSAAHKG

[9] = target: the molecule itself; assay: SEC; Superdex 75 10/300, 25 mM HEPES pH 7.5, 150 mM NaCl, without reducing agent (also ± 5 mM βME and after 0-10 mM TCEP); 200 µM samples; monomer against disulfide-mediated dimer
both import substrates = assay: ITC; 700-750 µM CPC-inactivated CHCHD4 constructs titrated into 50 µM unfolded substrate; 25 mM HEPES pH 7.5, 150 mM NaCl, 1 mM TCEP; 25 °C
Atto488-AIF(78-613)/NADH [10] = target: T2, Atto488-AIF(78-613)/NADH; assay: MST; CHCHD4 interface mutants titrated (1.8 nM–15 or 30 µM) into 100 nM Atto488-AIF(78-613) with unlabeled AIF and NADH; same buffer, 25 °C; third block of Table 1 (Fig. 2A), fitted with a Hill coefficient; settings: both partners purified
[11] = target: B6; assay: MST; CHCHD4-SPS titrated (15 nM–30 µM) into 100 nM unfolded Atto488-ΔN-CHCHD4-SPS in the presence of AIF(78-613) and NADH (2x stock 30 µM AIF/300 µM NADH); 25 mM HEPES pH 7.5, 150 mM NaCl, 0.01% Tween-20, 5 mM TCEP; 25 °C; a sample with added CHCHD4-N45 showed decreased binding; settings: both partners purified

T2 sequence (O95831 78-613): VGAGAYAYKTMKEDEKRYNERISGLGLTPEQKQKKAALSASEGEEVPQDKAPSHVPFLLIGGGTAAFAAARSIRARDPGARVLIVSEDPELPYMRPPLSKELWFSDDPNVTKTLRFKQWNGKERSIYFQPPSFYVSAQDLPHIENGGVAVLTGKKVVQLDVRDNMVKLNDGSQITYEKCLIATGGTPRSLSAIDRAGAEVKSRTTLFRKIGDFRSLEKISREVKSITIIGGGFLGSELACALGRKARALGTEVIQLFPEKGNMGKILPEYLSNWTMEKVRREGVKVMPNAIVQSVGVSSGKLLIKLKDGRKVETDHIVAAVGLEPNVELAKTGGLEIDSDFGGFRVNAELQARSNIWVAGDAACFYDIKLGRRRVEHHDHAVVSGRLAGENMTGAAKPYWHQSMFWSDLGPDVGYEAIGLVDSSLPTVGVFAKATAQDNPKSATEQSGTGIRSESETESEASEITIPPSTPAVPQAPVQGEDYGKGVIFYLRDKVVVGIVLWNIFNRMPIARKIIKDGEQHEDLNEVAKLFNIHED
T1 sequence (O95831 104-613 W196A): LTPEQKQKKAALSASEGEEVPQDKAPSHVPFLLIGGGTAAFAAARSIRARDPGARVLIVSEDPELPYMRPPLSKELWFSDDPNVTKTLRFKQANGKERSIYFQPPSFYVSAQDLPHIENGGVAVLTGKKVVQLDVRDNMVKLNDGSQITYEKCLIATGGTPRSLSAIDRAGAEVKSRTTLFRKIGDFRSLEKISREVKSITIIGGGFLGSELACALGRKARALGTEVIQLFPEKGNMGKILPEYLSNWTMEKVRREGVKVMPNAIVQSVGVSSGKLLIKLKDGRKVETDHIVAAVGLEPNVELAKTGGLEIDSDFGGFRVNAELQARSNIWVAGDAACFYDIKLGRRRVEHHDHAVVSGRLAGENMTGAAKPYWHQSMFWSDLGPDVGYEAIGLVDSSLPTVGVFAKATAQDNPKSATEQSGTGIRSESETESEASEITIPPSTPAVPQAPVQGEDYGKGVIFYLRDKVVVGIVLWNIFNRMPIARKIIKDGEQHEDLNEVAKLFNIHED

B2: CHCHD10, unfolded and reduced (natural protein)
chain: MPRGSRSAASRPASRPAAPSAHPPAHPPPSAAAPAPAPSGQPGLMAQMATTAAGVAVGSAVGHVMGSALTGAFSGGSSEPSQPAVQQAPTPAAPQPLQMGPCAYEIRQFLDCSTTQSDLSLCEGFSEALKQCKYYHGLSSLP
Kd [2]: 6.4 µM
Kd [3]: 4.5 µM
Kd [4]: 20.4 µM

B3: CHCHD6, unfolded and reduced (natural protein)
chain: MGSTESSEGRRVSFGVDEEERVRVLQGVRLSENVVNRMKEPSSPPPAPTSSTFGLQDGNLRAPHKESTLPRSGSSGGQQPSGMKEGVKRYEQEHAAIQDKLFQVAKREREAATKHSKASLPTGEGSISHEEQKSVRLARELESREAELRRRDTFYKEQLERIERKNAEMYKLSSEQFHEAASKMESTIKPRRVEPVCSGLQAQILHCYRDRPHEVLLCSDLVKAYQRCVSAAHKG
Kd [5]: 14.9 µM
Kd [6]: 26.5 µM
Kd [7]: 8.3 µM

B5: ΔN-CHCHD4 (residues 40-142) (domain or fragment, human, UniProt Q8N4Q1 40-142, looked up)
chain: HGLILPNGNINWNCPCLGGMASGPCGEQFKSAFSCFHYSTEEIKGSDCVDQFRAMQECMQKYPDLYPQEDEDEEEEREKKPAEQAEETAPIEATATKEEEGSS
notes: also called N-terminal truncation mutant; source: E. coli Rosetta2Gami(DE3), purified (Ni-NTA, PreScission cleavage, subtractive Ni-NTA, Superdex 75); not shown: GB1-6X-His, N-terminal, cleaved
binding result [9]: binds

Binder: B6
Kd (both import substrates): 18 to 40 µM
Kd (Atto488-AIF(78-613)/NADH [1]): 0.23 µM

B7: CHCHD4, wild type, full length (natural protein, human, UniProt Q8N4Q1 1-142, looked up)
chain: MSYCRQEGKDRIIFVTKEDHETPSSAELVADDPNDPYEEHGLILPNGNINWNCPCLGGMASGPCGEQFKSAFSCFHYSTEEIKGSDCVDQFRAMQECMQKYPDLYPQEDEDEEEEREKKPAEQAEETAPIEATATKEEEGSS
notes: also called CHCHD4-WT; MIA40; source: E. coli Rosetta2Gami(DE3), purified (Ni-NTA, PreScission cleavage, subtractive Ni-NTA, Superdex 75); not shown: GB1-6X-His, N-terminal, cleaved
Kd (Atto488-AIF(78-613)/NADH [10]): 0.18 µM
Kd (Atto488-AIF(78-613)/NADH [1]): 0.58 µM

B8: CHCHD4-AIA (I12A/F14A) (natural protein, human, UniProt Q8N4Q1 1-142, looked up)
chain: MSYCRQEGKDRAIAVTKEDHETPSSAELVADDPNDPYEEHGLILPNGNINWNCPCLGGMASGPCGEQFKSAFSCFHYSTEEIKGSDCVDQFRAMQECMQKYPDLYPQEDEDEEEEREKKPAEQAEETAPIEATATKEEEGSS
notes: CHCHD4/MIA40, human, full length; The methods print F12A/I14A for this mutant; the results print I12A/F14A; also called β-hairpin mutant; source: E. coli Rosetta2Gami(DE3), purified (Ni-NTA, PreScission cleavage, subtractive Ni-NTA, Superdex 75); not shown: GB1-6X-His, N-terminal, cleaved
Kd (Atto488-AIF(78-613)/NADH [10]): 3 µM

B11: CHCHD4-L28D (natural protein, human, UniProt Q8N4Q1 1-142, looked up)
chain: MSYCRQEGKDRIIFVTKEDHETPSSAEDVADDPNDPYEEHGLILPNGNINWNCPCLGGMASGPCGEQFKSAFSCFHYSTEEIKGSDCVDQFRAMQECMQKYPDLYPQEDEDEEEEREKKPAEQAEETAPIEATATKEEEGSS
notes: CHCHD4/MIA40, human, full length; source: E. coli Rosetta2Gami(DE3), purified (Ni-NTA, PreScission cleavage, subtractive Ni-NTA, Superdex 75); not shown: GB1-6X-His, N-terminal, cleaved
Kd (Atto488-AIF(78-613)/NADH [10]): 0.24 µM

Further lines, results first:

binding result (AIF(104-613)-W196A): binds
Kd (Atto488-AIF(78-613)/NADH [1]): 0.63 µM
B1: CHCHD4-N45 (residues 1-45) (domain or fragment, human, UniProt Q8N4Q1 1-45, looked up)
chain: MSYCRQEGKDRIIFVTKEDHETPSSAELVADDPNDPYEEHGLILP
notes: In the crystal structure (PDB 8VGY) the same residues 1-45 stood linked to the C-terminus of AIF(104-613)-W196A; also called CHCHD4(1-45); source: E. coli Rosetta2Gami(DE3), purified (Ni-NTA, PreScission cleavage, subtractive Ni-NTA, Superdex 75); not shown: GB1-6X-His, N-terminal, cleaved

binding result [8]: binds
B4: ΔN-CHCHD4-SPS (residues 40-142, C53S/C55S) (domain or fragment, human, UniProt Q8N4Q1 40-142, looked up)
chain: HGLILPNGNINWNSPSLGGMASGPCGEQFKSAFSCFHYSTEEIKGSDCVDQFRAMQECMQKYPDLYPQEDEDEEEEREKKPAEQAEETAPIEATATKEEEGSS
notes: Folded, as titrant in ITC and in analytical SEC; also called ΔN-SPS; source: E. coli Rosetta2Gami(DE3), purified (Ni-NTA, PreScission cleavage, subtractive Ni-NTA, Superdex 75); not shown: GB1-6X-His, N-terminal, cleaved

binding result [11]: binds
B9: Atto488-ΔN-CHCHD4-SPS, unfolded (domain or fragment, human, UniProt Q8N4Q1 40-142, looked up)
chain: HGLILPNGNINWNSPSLGGMASGPCGEQFKSAFSCFHYSTEEIKGSDCVDQFRAMQECMQKYPDLYPQEDEDEEEEREKKPAEQAEETAPIEATATKEEEGSS
modifications: ATTO 488 (NHS ester) on the N-terminus
notes: also called unfolded CHCH substrate; unfolded fluorescent substrate; not shown: GB1-6X-His, N-terminal, cleaved

binding result [8]: binds
B10: CHCHD4-AIA-A-SPS (I12A/F14A/H20A/C53S/C55S) (natural protein, human, UniProt Q8N4Q1 1-142, looked up)
chain: MSYCRQEGKDRAIAVTKEDAETPSSAELVADDPNDPYEEHGLILPNGNINWNSPSLGGMASGPCGEQFKSAFSCFHYSTEEIKGSDCVDQFRAMQECMQKYPDLYPQEDEDEEEEREKKPAEQAEETAPIEATATKEEEGSS
notes: as for B11

— paper PMC11832770, “NADH-bound AIF activates the mitochondrial CHCHD4/MIA40 chaperone by a substrate-mimicry mechanism” (The EMBO Journal, 2025)
